Patent US20250084172A1 (23ANDME, published 2025)
Residue numbers refer to the chain shown, from its start. Numbers in names are those of the source.

B1: human soluble ULBP6 haplotype 02 (hULBP6_02) (ligand)
chain: RRDDPHSLCYDITVIPKFRPGPRWCAVQGQVDEKTFLHYDCGNKTVTPVSPLGKKLNVTTAWKAQNPVLREVVDILTEQLLDIQLENYTPKEPLTLQARMSCEQKAEGHSSGSWQFSIDGQTFLLFDSEKRMWTTVHPGARKMKEKWENDKDVAMSFHYISMGDCIGWLEDFLMGMDSTLEPSAGAPLAMSSG
notes: also called sULBP6_02
B2: human soluble ULBP6 haplotype 01 (hULBP6_01) (ligand)
chain: B1 chain with R1G, L81R, T122I
notes: also called sULBP6_01
B3: Humanized 8E11 (h8E11) (E-) (antibody, human IgG1, kappa, N297G, V domains shown)
VH: EVQLVESGGGLVQPGGSLRLSCAASGFTFRTYGMHWVRQAPGKGLEWVAYISSGSGTIDYADTVKGRFTISRDNAKNSLYLQMNSLRAEDTAVYYCTRQTGAMDYWGQGTLVTVSS
VL: EIVLTQSPATLSLSPGERATLSCSASSSVSYMNWYQQKPGQSPRLWIYGISNLASGVPARFSGSGSGTDFTLTISSLEPEDFAVYYCQQRSSHPLTFGGGTKVEIKR
notes: hIgG1 with N297G (effector negative)
B4: Humanized 7B3 (h7B3) (E-) (antibody, human IgG1, kappa, N297G, V domains shown)
VH: B3 VH with R30S, M34F, G54N, T97A, T100G, G101Y, A102G, M103F, Y105N, L111T
VL: DIQLTQSPSSLSASVGDRVTITCSASSRVSYMNWYQQKPGKSPKIWVYGISNLASGVPSRFSGSGSGTDFTFTISSLQPEDIATYYCQQRSSHPLTFGGGTKVEIKR
notes: as for B3
B5: 8E11 (mouse hybridoma clone) (antibody, V domains shown)
VH: B3 VH with E1D, L18R, R19K, G42E, S78T, Y80F, N84T, A88S, V93M, L111S
VL: EILLTQSPAIIAASPGEKVTITCSASSSVSYMNWYQQKPGSSPKLWIYGISNLASGVPARFSGSGSGTSFSFTINSMEAEDVATYYCQQRSSHPLTFGAGTKLELK
notes: Tested as hybridoma culture supernatant
B6: humanized 7B3 (h7B3), Fc version not stated (antibody, V domains shown)
VH: B3 VH with R30S, M34F, G54N, T97A, T100G, G101Y, A102G, M103F, Y105N, L111T
VL: DIQLTQSPSSLSASVGDRVTITCSASSRVSYMNWYQQKPGKSPKIWVYGISNLASGVPSRFSGSGSGTDFTFTISSLQPEDIATYYCQQRSSHPLTFGGGTKVEIK
notes: Recombinant humanized antibody, hIgG1 backbone with kappa light chain; also called hu7B3; PUR3922
B7: 7B3 (mouse hybridoma clone) (antibody, V domains shown)
VH: DVQLVESGGGLVKPGGSRKLSCAASGFTFSTYGFHWVRQVPEKGLEWVAYISSNSGTIDYADTVKGRFTISRDNAKNTLFLQMTSLRSEDTAMYYCARQGYGFDNWGQGTTLTVSS
VL: B5 VL with S28R, L45I, I47V
notes: Tested as hybridoma culture supernatant; also called mAb 7B3

Legend:
[1] = biological target: T1, NKG2D on cells (NKG2D expressing cells, primed PBMCs) (UniProt P26718 1-216); assay: competition with anti-NKG2D mAb on NKG2D expressing cells (data not shown)
T1 construct: whole, on cells; also called cell surface NKG2D
T1 sequence (looked up): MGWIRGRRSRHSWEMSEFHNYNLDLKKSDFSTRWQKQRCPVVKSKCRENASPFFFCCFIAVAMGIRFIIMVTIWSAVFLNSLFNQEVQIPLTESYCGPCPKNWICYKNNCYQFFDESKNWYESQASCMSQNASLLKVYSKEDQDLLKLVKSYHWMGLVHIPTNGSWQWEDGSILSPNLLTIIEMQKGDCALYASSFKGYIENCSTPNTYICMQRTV

[2] = biological target: hNKG2D-Fc (human NKG2D 78-216 with C-terminal long huFc-Flag tag) (human); assay: SPR (BIACORE 8K, 37 C); hNKG2D-Fc captured on Protein A, soluble ligand injected
[3] = biological target: B1; assay: SPR (BIACORE);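 also: soluble human and cynomolgus NKG2D ligands injected as analytes in 3-fold dilution series spanning 0.01 to 50 nM at 37 °C, reference-subtracted sensorgrams fitted to a 1:1 Langmuir model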
[4] = biological target: T2, cynomolgus soluble ULBP2/6 (cULBP2/6) (cynomolgus, UniProt Q5VY80 28-217 (human entry), limits assumed); assay: SPR (BIACORE);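 also: soluble human and cynomolgus NKG2D ligands injected as analytes in 3-fold dilution series spanning 0.01 to 50 nM at 37 °C, reference-subtracted sensorgrams fitted to a 1:1 Langmuir model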
T2 construct: also called cyno ULBP6; Cyno-cULBP2/6
T2 chain: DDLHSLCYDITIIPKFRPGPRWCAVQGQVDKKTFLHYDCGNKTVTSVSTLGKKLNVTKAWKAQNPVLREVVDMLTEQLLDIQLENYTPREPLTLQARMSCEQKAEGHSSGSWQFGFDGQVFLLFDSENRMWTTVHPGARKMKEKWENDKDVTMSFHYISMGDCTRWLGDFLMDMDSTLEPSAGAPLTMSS

[5] = biological target: T3, cynomolgus soluble ULBP5 (cULBP5) (cynomolgus); assay: SPR (BIACORE);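 also: soluble human and cynomolgus NKG2D ligands injected as analytes in 3-fold dilution series spanning 0.01 to 50 nM at 37 °C, reference-subtracted sensorgrams fitted to a 1:1 Langmuir model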
T3 construct: also called Cyno-cULBP5
T3 chain: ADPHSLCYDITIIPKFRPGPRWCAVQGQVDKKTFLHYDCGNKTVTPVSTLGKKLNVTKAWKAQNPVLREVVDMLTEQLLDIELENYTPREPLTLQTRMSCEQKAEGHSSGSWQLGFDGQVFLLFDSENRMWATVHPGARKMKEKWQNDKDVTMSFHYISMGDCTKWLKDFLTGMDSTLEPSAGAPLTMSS

[6] = biological target: B2; assay: SPR (BIACORE);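 also: soluble human and cynomolgus NKG2D ligands injected as analytes in 3-fold dilution series spanning 0.01 to 50 nM at 37 °C, reference-subtracted sensorgrams fitted to a 1:1 Langmuir model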
[7] = biological target: T4, human soluble ULBP5 (hULBP5) (human, UniProt Q6H3X3 26-218); assay: SPR (BIACORE)
T4 construct: also called sULBP5
T4 sequence: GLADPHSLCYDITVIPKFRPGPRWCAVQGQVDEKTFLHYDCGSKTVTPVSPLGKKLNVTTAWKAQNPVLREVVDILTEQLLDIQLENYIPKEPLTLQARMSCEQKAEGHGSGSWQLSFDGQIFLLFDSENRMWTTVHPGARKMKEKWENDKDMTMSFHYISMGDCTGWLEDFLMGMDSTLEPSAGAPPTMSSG

[8] = biological target: T5, human soluble ULBP2 (hULBP2) (human, UniProt Q9BZM5 26-216); assay: SPR (BIACORE)
T5 construct: also called sULBP2
T5 sequence: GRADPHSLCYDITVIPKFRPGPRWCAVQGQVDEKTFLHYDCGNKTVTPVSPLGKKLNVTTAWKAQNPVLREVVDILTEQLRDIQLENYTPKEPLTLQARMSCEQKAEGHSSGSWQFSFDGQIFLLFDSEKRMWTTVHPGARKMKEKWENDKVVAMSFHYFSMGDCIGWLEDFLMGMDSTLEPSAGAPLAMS

[9] = biological target: B1; assay: cell-based or functional assay
[10] = biological target: B2; assay: blocking ELISA; hNKG2D coated, antibody titrated with biotinylated hULBP6_01
[11] = biological target: B1; assay: blocking ELISA; hNKG2D coated, antibody titrated with biotinylated hULBP6_02
[12] = biological target: B2; assay: blocking ELISA; hNKG2D coated, antibody titrated with biotinylated hULBP6_01; hNKG2D-hULBP6_01 interaction; value of the running text
[13] = biological target: B1; assay: blocking ELISA; hNKG2D coated, antibody titrated with biotinylated hULBP6_02; hNKG2D-hULBP6_02 interaction; value of the running text
[14] = biological target: T2, cynomolgus soluble ULBP2/6 (cULBP2/6); assay: BLI (OCTET), mouse antibody captured from hybridoma supernatant on AMC biosensor, 300 nM cULBP2/6
[15] = biological target: B1; assay: cell-based or functional assay
[16] = biological target: B1; assay: SPR (BIACORE 8K, 37 C); antibody captured on Protein A, soluble ULBP injected;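 also: ligand injected as threefold dilution series in HBS-P (highest 10 or 50 nM), reference-cell and buffer-subtracted sensorgrams fitted with a 1:1 Langmuir model for on and off rates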
[17] = biological target: T2, cynomolgus soluble ULBP2/6 (cULBP2/6); assay: as above
[18] = biological target: T3, cynomolgus soluble ULBP5 (cULBP5); assay: as above
[19] = biological target: B2; assay: as above
[20] = biological target: T5, human soluble ULBP2 (hULBP2); assay: as above
[21] = biological target: T6, cell surface ULBP6_01 on COV644 cells (human, UniProt Q5VY80 27-218); assay: flow cytometry on COV644 cells, anti-hFc-APC detection, average of 2 replicates
T6 construct: whole, on cells; also called cell surface ULBP6 (COV644)
T6 chain: B1 chain with R1G, L81R, T122I

[22] = biological target: T7, cell surface ULBP6_02 on PANC02.13 cells (human, UniProt Q5VY80 26-218); assay: flow cytometry on PANC02.13 cells, anti-hFc-APC detection, average of 2 replicates
T7 construct: whole, on cells; also called cell surface ULBP6 (PANC02.13)
T7 chain: B1 chain

[23] = biological target: T6, cell surface ULBP6_01 on COV644 cells; assay: flow cytometry; blocking of hNKG2D-mFc binding to COV644 cells, average of 2 replicates
[24] = biological target: T8, human ULBP6 displayed on M13 phage (ULBP6-HA-pIII) (human, UniProt Q5VY80 26-218); assay: phage ELISA: plate coated with the antibody, ULBP6 phage titrated in 3-fold steps from 1.0 O.D./mL, HRP anti-M13 detection, O.D. 450
T8 construct: also called ULBP6 phage; not shown: M13 minor coat protein pIII
T8 sequence: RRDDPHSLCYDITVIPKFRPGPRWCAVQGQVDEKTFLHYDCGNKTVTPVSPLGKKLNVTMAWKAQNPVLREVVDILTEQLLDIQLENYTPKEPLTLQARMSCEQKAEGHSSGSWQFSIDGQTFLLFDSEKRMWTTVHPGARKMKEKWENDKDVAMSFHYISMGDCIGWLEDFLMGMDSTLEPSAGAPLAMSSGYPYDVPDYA

Sequence of hNKG2D-Fc (human NKG2D 78-216 with C-terminal long huFc-Flag tag) (human) (chain, as listed by the source limits assumed): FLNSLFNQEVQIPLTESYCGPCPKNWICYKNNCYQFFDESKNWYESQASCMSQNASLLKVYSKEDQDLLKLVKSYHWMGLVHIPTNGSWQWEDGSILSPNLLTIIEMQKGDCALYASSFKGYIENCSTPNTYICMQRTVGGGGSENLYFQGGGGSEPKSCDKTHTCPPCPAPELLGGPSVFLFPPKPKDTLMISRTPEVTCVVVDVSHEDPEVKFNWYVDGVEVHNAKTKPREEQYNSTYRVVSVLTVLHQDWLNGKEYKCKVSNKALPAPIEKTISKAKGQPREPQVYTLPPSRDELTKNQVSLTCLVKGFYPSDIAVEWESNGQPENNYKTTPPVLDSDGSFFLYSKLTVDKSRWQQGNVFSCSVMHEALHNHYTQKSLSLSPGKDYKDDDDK

B1
binding result [1]: binds
Kd [2]: 4.8 nM

B2
binding result [1]: binds
Kd [2]: 41 nM

B3
Kd [3]: 0.28 nM
Kd [4]: 2.06 nM
Kd [5]: 23.1 nM
Kd [6]: 0.27 nM
Kd [7]: 1.76 nM
Kd [8]: 0.5 nM
EC50 (read off the curve); NKG2D MFI on primed PBMCs of donor 1307 with 50 nM sULBP6_02 [9]: ~20 nM
IC50 [10]: 5.06 nM
IC50 [11]: 0.035 nM
IC50 [12]: 4.32 nM
IC50 [13]: 1.59 nM

B4
Kd [3]: 0.2 nM
Kd [4]: 0.48 nM
Kd [5]: 7.67 nM
Kd [6]: 0.22 nM
Kd [7]: 2.39 nM
Kd [8]: 0.54 nM
EC50 (read off the curve); NKG2D MFI on primed PBMCs of donor 1307 with 50 nM sULBP6_02 [9]: ~20 nM
IC50 [10]: 4.48 nM
IC50 [11]: 0.028 nM
IC50 [12]: 4.47 nM
IC50 [13]: 1.52 nM

B5
binding result [14]: binds

B6
EC50 (read off the curve); NKG2D MFI on primed PBMCs with 50 nM sULBP6_02 [9]: ~20 nM
EC50 (read off the curve); IFNg secretion of primed PBMCs on plate-bound MICA with 50 nM sULBP6_02 [15]: ~1 nM
Kd [16]: 0.255 nM
koff [16]: 0.000379 s⁻¹
kon [16]: 1.48e+06 M⁻¹ s⁻¹
Kd [17]: 0.377 nM
koff [17]: 0.000542 s⁻¹
kon [17]: 1.44e+06 M⁻¹ s⁻¹
Kd [18]: 6.13 nM
koff [18]: 0.0034 s⁻¹
kon [18]: 554000 M⁻¹ s⁻¹
Kd [19]: 0.263 nM
koff [19]: 0.000382 s⁻¹
kon [19]: 1.45e+06 M⁻¹ s⁻¹
Kd [20]: 0.673 nM
koff [20]: 0.000507 s⁻¹
kon [20]: 753000 M⁻¹ s⁻¹
EC50 [21]: 1.93 nM
EC50 [22]: 1.97 nM
IC50 [23]: 0.17 nM
EC50 (read off the curve) [24]: ~0.006 O.D. (phage)

B7
binding result [14]: binds
